Experimental data reported in patent publication US20250262210A1 (TRUSTEES OF COLUMBIA UNIVERSITY IN THE CITY OF NEW YORK, published 2025).
Positions count from the first letter of the chain named.

T1: LZTR1 R810W-FLAG (human, UniProt Q8N653 1-840)
T1 construct: Stably expressed in U87 cells by lentivirus; also called LZTR1-FLAG-R810W; LZTR1 RW; not shown: FLAG tag
T1 sequence (looked up): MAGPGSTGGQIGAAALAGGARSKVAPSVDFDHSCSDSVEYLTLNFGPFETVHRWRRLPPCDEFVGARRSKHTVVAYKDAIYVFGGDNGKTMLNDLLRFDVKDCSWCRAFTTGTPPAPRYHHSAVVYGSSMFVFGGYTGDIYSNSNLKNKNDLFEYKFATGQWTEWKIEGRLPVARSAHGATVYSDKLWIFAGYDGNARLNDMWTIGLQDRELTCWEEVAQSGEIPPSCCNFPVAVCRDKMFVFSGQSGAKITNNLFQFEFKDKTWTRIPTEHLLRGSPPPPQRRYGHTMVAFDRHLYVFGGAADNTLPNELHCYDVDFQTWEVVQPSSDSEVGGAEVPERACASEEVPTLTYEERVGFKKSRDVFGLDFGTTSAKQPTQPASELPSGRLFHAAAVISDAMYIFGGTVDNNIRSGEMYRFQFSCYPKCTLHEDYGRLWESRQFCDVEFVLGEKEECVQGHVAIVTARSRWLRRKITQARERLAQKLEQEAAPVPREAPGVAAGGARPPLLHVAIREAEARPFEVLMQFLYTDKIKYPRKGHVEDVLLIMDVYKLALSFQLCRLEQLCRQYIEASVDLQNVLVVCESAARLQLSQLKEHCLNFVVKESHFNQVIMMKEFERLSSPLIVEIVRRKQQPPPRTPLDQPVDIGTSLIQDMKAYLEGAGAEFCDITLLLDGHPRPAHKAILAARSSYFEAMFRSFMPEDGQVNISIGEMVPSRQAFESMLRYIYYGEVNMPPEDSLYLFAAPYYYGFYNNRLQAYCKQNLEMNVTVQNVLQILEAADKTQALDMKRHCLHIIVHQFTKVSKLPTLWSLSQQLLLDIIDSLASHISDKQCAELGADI

T2: LZTR1-FLAG (human, UniProt Q8N653 1-840)
T2 construct: Expressed in HEK 293T, HeLa or U87 cells; used as cell lysate; also called LZTR1 wild type-FLAG; LZTR1 WT; not shown: FLAG tag at the C-terminus
T2 sequence (looked up): T1 sequence (looked up) with W810R

B1: BRAT1 (other, human, UniProt Q6PJG6 1-821, looked up)
chain: MDPECAQLLPALCAVLVDPRQPVADDTCLEKLLDWFKTVTEGESSVVLLQEHPCLVELLSHVLKVQDLSSGVLSFSLRLAGTFAAQENCFQYLQQGELLPGLFGEPGPLGRATWAVPTVRSGWIQGLRSLAQHPSALRFLADHGAVDTIFSLQGDSSLFVASAASQLLVHVLALSMRGGAEGQPCLPGGDWPACAQKIMDHVEESLCSAATPKVTQALNVLTTTFGRCQSPWTEALWVRLSPRVACLLERDPIPAAHSFVDLLLCVARSPVFSSSDGSLWETVARALSCLGPTHMGPLALGILKLEHCPQALRTQAFQVLLQPLACVLKATVQAPGPPGLLDGTADDATTVDTLLASKSSCAGLLCRTLAHLEELQPLPQRPSPWPQASLLGATVTVLRLCDGSAAPASSVGGHLCGTLAGCVRVQRAALDFLGTLSQGTGPQELVTQALAVLLECLESPGSSPTVLKKAFQATLRWLLSSPKTPGCSDLGPLIPQFLRELFPVLQKRLCHPCWEVRDSALEFLTQLSRHWGGQADFRCALLASEVPQLALQLLQDPESYVRASAVTAMGQLSSQGLHAPTSPEHAEARQSLFLELLHILSVDSEGFPRRAVMQVFTEWLRDGHADAAQDTEQFVATVLQAASRDLDWEVRAQGLELALVFLGQTLGPPRTHCPYAVALPEVAPAQPLTEALRALCHVGLFDFAFCALFDCDRPVAQKSCDLLLFLRDKIASYSSLREARGSPNTASAEATLPRWRAGEQAQPPGDQEPEAVLAMLRSLDLEGLRSTLAESSDHVEKSPQSLLQDMLATGGFLQGDEADCY
B2: CTH (other, human, UniProt P32929 1-405, looked up)
chain: MQEKDASSQGFLPHFQHFATQAIHVGQDPEQWTSRAVVPPISLSTTFKQGAPGQHSGFEYSRSGNPTRNCLEKAVAALDGAKYCLAFASGLAATVTITHLLKAGDQIICMDDVYGGTNRYFRQVASEFGLKISFVDCSKIKLLEAAITPETKLVWIETPTNPTQKVIDIEGCAHIVHKHGDIILVVDNTFMSPYFQRPLALGADISMYSATKYMNGHSDVVMGLVSVNCESLHNRLRFLQNSLGAVPSPIDCYLCNRGLKTLHVRMEKHFKNGMAVAQFLESNPWVEKVIYPGLPSHPQHELVKRQCTGCTGMVTFYIKGTLQHAEIFLKNLKLFTLAESLGGFESLAELPAIMTHASVLKNDRDVLGISDTLIRLSVGLEDEEDLLEDLDQALKAAHPPSGSHS
B3: CREB3L2 (other, human, UniProt Q70SY1 1-520, looked up)
chain: MEVLESGEQGVLQWDRKLSELSEPGDGEALMYHTHFSELLDEFSQNVLGQLLNDPFLSEKSVSMEVEPSPTSPAPLIQAEHSYSLCEEPRAQSPFTHITTSDSFNDDEVESEKWYLSTDFPSTSIKTEPVTDEPPPGLVPSVTLTITAISTPLEKEEPPLEMNTGVDSSCQTIIPKIKLEPHEVDQFLNFSPKEAPVDHLHLPPTPPSSHGSDSEGSLSPNPRLHPFSLPQTHSPSRAAPRAPSALSSSPLLTAPHKLQGSGPLVLTEEEKRTLIAEGYPIPTKLPLSKSEEKALKKIRRKIKNKISAQESRRKKKEYMDSLEKKVESCSTENLELRKKVEVLENTNRTLLQQLQKLQTLVMGKVSRTCKLAGTQTGTCLMVVVLCFAVAFGSFFQGYGPYPSATKMALPSQHSLQEPYTASVVRSRNLLIYEEHSPPEESSSPGSAGELGGWDRGSSLLRVSGLESRPDVDLPHFIISNETSLEKSVLLELQQHLVSAKLEGNETLKVVELDRRVNTTF
B4: CELF1 (other, human, UniProt Q92879 1-486, looked up)
chain: MNGTLDHPDQPDLDAIKMFVGQVPRTWSEKDLRELFEQYGAVYEINVLRDRSQNPPQSKGCCFVTFYTRKAALEAQNALHNMKVLPGMHHPIQMKPADSEKNNAVEDRKLFIGMISKKCTENDIRVMFSSFGQIEECRILRGPDGLSRGCAFVTFTTRAMAQTAIKAMHQAQTMEGCSSPMVVKFADTQKDKEQKRMAQQLQQQMQQISAASVWGNLAGLNTLGPQYLALYLQLLQQTASSGNLNTLSSLHPMGGLNAMQLQNLAALAAAASAAQNTPSGTNALTTSSSPLSVLTSSGSSPSSSSSNSVNPIASLGALQTLAGATAGLNVGSLAGMAALNGGLGSSGLSNGTGSTMEALTQAYSGIQQYAAAALPTLYNQNLLTQQSIGAAGSQKEGPEGANLFIYHLPQEFGDQDLLQMFMPFGNVVSAKVFIDKQTNLSKCFGFVSYDNPVSAQAAIQSMNGFQIGMKRLKVQLKRSKNDSKPY
B5: CARS (other, human, UniProt P49589 2-748, looked up)
chain: ADSSGQQGKGRRVQPQWSPPAGTQPCRLHLYNSLTRNKEVFIPQDGKKVTWYCCGPTVYDASHMGHARSYISFDILRRVLKDYFKFDVFYCMNITDIDDKIIKRARQNHLFEQYREKRPEAAQLLEDVQAALKPFSVKLNETTDPDKKQMLERIQHAVQLATEPLEKAVQSRLTGEEVNSCVEVLLEEAKDLLSDWLDSTLGCDVTDNSIFSKLPKFWEGDFHRDMEALNVLPPDVLTRVSEYVPEIVNFVQKIVDNGYGYVSNGSVYFDTAKFASSEKHSYGKLVPEAVGDQKALQEGEGDLSISADRLSEKRSPNDFALWKASKPGEPSWPCPWGKGRPGWHIECSAMAGTLLGASMDIHGGGFDLRFPHHDNELAQSEAYFENDCWVRYFLHTGHLTIAGCKMSKSLKNFITIKDALKKHSARQLRLAFLMHSWKDTLDYSSNTMESALQYEKFLNEFFLNVKDILRAPVDITGQFEKWGEEEAELNKNFYDKKTAIHKALCDNVDTRTVMEEMRALVSQCNLYMAARKAVRKRPNQALLENIALYLTHMLKIFGAVEEDSSLGFPVGGPGTSLSLEATVMPYLQVLSEFREGVRKIAREQKVPEILQLSDALRDNILPELGVRFEDHEGLPTVVKLVDRNTLLKEREEKRRVEEEKRKKKEEAARRKQEQEAAKLAKMKIPPSEMFLSETDKYSKFDENGLPTHDMEGKELSKGQAKKLKKLFEAQEKLYKEYLQMAQNGSFQ
B6: CCNB2 (other, human, UniProt O95067 1-398, looked up)
chain: MALLRRPTVSSDLENIDTGVNSKVKSHVTIRRTVLEEIGNRVTTRAAQVAKKAQNTKVPVQPTKTTNVNKQLKPTASVKPVQMEKLAPKGPSPTPEDVSMKEENLCQAFSDALLCKIEDIDNEDWENPQLCSDYVKDIYQYLRQLEVLQSINPHFLDGRDINGRMRAILVDWLVQVHSKFRLLQETLYMCVGIMDRFLQVQPVSRKKLQLVGITALLLASKYEEMFSPNIEDFVYITDNAYTSSQIREMETLILKELKFELGRPLPLHFLRRASKAGEVDVEQHTLAKYLMELTLIDYDMVHYHPSKVAAAASCLSQKVLGQGKWNLKQQYYTGYTENEVLEVMQHMAKNVVKVNENLTKFIAIKNKYASSKLLKISMIPQLNSKAVKDLASPLIGRS

Molecular target: T1, LZTR1 R810W-FLAG
Test: IP/MS, LZTR1 R810W-FLAG, U87
Experimental: (§1) Lysates were immunoprecipitated with FLAG affinity matrix and eluted with FLAG peptide. […] Protein gel slices were excised and in-gel digestion performed as previously described (83), with minor modifications. Gel slices were washed with 1:1 A cetonitrile and 100 mM ammonium bicarbonate for 30 min then dehydrated with 100% acetonitrile for 10 min until shrunk. The excess acetonitrile was then removed and the slices dried in speed-vacuum at room temperature for 10 min. Gel slices were reduced with 5 mM DTT for 30 min at 56° C. in an air thermostat, cooled down to room temperature, and alkylated with 11 mM IAA for 30 min with no light. Gel slices were then washed with 100 mM of ammonium bicarbonate and 100% acetonitrile for 10 min each. Excess acetonitrile was removed and dried in a speed-vacuum for 10 min at room temperature and the gel slices were re-hydrated in a solution of 25 ng/μl trypsin in 50 mM ammonium bicarbonate for 30 min on ice and digested overnight at 37° C. in an air thermostat. Digested peptides were collected and further extracted from gel slices in extraction buffer (1:2 ratio by volume of 5% formic acid:acetonitrile) at high speed, shaking in an air thermostat. The supernatants from both extractions were combined and dried in a speed-vacuum. Peptides were dissolved in 3% acetonitrile/0.1% formic acid. Desalted peptides were injected in an EASY-Spray™ PepMap™ RSLC C18 50 cm×[…] column (Thermo Scientific) connected to an Orbitrap Fusion™ Tribrid™ (Thermo Scientific) as described in “Global ubiquitylation enrichment” section. The following modifications were used for protein identification and quantification: oxidation of methionine (M), acetylation of the protein N-terminus, and deamination for asparagine or glutamine (NQ). Results obtained from MaxQuant were assembled in Scaffold for data visualization.

Binder | binding result
B1 | binds
B2 | binds
B3 | binds
B4 | binds
B5 | binds
B6 | binds

Molecular target: T2, LZTR1-FLAG
Test: IP/MS, LZTR1 wild type-FLAG, U87
Experimental: as §1

Binder | binding result
B1 | binds
B2 | binds
B3 | binds
B4 | binds
B5 | binds
B6 | binds
